Reference: article PMC10770727

Legend:
[1] = target: recombinant human calreticulin (amino acids 18 to 417, N-terminal His-tag) (human) (UniProt P27797)
[2] = target: bovine liver calreticulin (bovine) (UniProt P52193); assay: SPR; bovine CRT or human recombinant S100A10 amine-coupled to CM5 chips (1000 to 1300 RU), BIACORE 3000; Glu-plasminogen (0-1 uM) or 0.5 uM bovine serum albumin flowed at 50 ul/min; 25 °C; HBS-ET (10 mM Hepes pH 7.4, 150 mM NaCl, 3 mM EDTA, 0.05% Tween-20); apparent KD from steady-state affinity model
[3] = target: human recombinant S100A10 (human) (UniProt P60903); assay: as above
Sequence of UniProt P60903 (P60903 whole entry): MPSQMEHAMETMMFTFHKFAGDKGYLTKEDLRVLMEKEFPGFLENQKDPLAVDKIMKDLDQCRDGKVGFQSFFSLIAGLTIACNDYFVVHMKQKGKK

Sequence of UniProt P52193 (P52193 18-417): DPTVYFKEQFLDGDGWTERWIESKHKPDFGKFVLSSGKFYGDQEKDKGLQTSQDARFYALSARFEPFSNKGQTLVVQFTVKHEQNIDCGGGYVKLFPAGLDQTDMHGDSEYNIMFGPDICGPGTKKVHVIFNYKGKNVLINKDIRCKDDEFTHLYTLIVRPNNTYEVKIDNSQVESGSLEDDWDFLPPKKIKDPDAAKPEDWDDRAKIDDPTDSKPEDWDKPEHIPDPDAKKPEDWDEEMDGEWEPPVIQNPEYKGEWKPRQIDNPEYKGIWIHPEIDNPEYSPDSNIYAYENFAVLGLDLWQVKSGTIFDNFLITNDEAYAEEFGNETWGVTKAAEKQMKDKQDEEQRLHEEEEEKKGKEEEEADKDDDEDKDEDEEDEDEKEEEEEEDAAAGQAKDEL
Sequence of UniProt P27797 (P27797 18-417): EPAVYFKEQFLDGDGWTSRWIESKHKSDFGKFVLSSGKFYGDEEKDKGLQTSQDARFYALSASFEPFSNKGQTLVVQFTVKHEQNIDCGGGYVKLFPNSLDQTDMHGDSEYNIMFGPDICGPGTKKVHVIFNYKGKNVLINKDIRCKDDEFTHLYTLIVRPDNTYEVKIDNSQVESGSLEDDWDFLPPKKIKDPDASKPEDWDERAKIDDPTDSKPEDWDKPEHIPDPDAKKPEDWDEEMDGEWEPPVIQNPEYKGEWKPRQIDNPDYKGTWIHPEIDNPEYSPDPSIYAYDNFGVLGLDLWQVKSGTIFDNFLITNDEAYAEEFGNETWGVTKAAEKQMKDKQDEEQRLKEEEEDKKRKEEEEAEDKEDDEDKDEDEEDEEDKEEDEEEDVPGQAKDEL

inhibition by 10 mM ε-ACA of the stimulation of tPA-dependent plasminogen activation by 0.5 μM recombinant human CRT [1]: 80% | Kd [2]: 1900 nM | Kd [3]: 500 nM
Substance: human Glu-plasminogen (natural protein)
